Series [1] concerns the target T1, THOC6-FLAG (UniProt Q86W42 1-341).
T1 sequence: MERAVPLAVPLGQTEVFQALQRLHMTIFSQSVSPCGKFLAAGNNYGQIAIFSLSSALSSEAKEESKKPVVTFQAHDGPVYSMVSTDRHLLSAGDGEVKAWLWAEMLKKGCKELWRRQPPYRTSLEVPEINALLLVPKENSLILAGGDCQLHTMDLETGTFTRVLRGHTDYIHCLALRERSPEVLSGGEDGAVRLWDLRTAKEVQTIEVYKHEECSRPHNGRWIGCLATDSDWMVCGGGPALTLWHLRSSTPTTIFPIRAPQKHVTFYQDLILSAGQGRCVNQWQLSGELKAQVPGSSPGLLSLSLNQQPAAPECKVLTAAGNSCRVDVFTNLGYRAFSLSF
Briefly: streptavidin pull-down; 4 C overnight or 37 C; EMSA: 20 mM Tris pH 7.5, 2 mM DTT, 12 mM MgCl2, 100 mM NaCl, 10% glycerol, 30 min RT; pull-downs: 4 C overnight or 37 C 2 h (Fig S5A: 4 h), buffer not given in. To be noted: protein: recombinant; tags: C-terminal FLAG (DYK); label: 5' biotin on DNA or RNA strand; blunt. On the technique in general: A gel shift assay detects complexes by their altered migration in electrophoresis.

For another series, the target named is T2, GST-THOC6 WT (UniProt Q86W42 1-341).
T2 sequence: T1 sequence
Briefly: streptavidin pull-down; EMSA: 20 mM Tris pH 7.5, 2 mM DTT, 12 mM MgCl2, 100 mM NaCl, 10% glycerol, 30 min RT; pull-downs: 4 C overnight or 37 C 2 h (Fig S5A: 4 h), buffer not given in. To be noted: protein: recombinant; tags: GST (pGEX-4T1), FLAG; label: 5' biotin on DNA or RNA strand; blunt.

Series [2] deals with T1, THOC6-FLAG. Put plainly: streptavidin pull-down; 4 C overnight or 37 C 2 h; EMSA: 20 mM Tris pH 7.5, 2 mM DTT, 12 mM MgCl2, 100 mM NaCl, 10% glycerol, 30 min RT; pull-downs: 4 C overnight or 37 C 2 h (Fig S5A: 4 h), buffer not given in. To be noted: protein: recombinant; tags: C-terminal FLAG (DYK); label: 5' biotin on DNA or RNA strand; blunt.

B1: OSD (OS4D; OS-ssDNA + OS-ssRNA) (DNA:RNA)
DNA: CGCCCTCCCGCCCCCTCGGGGCCCCGCCCCTGGGCCTCTCAGGCCCCTCCCCTGCGCTCC
RNA: GGAGCGCAGGGGAGGGGCCUGAGAGGCCCAGGGGCGGGGCCCCGAGGGGGCGGGAGGGCG
In the case of B1, the binding result with THOC6-FLAG [1] is given as “binds”.

B2: C4D (C4-ssDNA + C4-ssRNA) (DNA:RNA)
DNA: CCCGGGAGGCGGAGGTTGCAGTGAACCAAGATCGCGCCATTGCACTCCAGCCTGGG
RNA: CCCAGGCUGGAGUGCAAUGGCGCGAUCUUGGUUCACUGCAACCUCCGCCUCCCGGG
For B2, the binding result in the series with GST-THOC6 WT and with THOC6-FLAG [2] was “binds” in each case.

(Values after publication PMC9800341, “THOC5 complexes with DDX5, DDX17, and CDK12 to regulate R loop structures and transcription elongation rate”.)
